Molecular target: Human FcγRIIIa V158 (human)
Assay: AlphaScreen or HTRF

Row | fold difference in binding against IgG1 | fold decrease in binding against IgG1 | Substance
1 | < 2 fold |  | anti-CD142 mAb variant 2h-AEA (IgG1 with IgG2 lower hinge, K326A/I332E/E333A) (antibody)
2 | < 2 fold |  | anti-CD142 mAb variant 2h-DAA (IgG1 with IgG2 lower hinge, S239D/K326A/E333A) (antibody)
3 |  | > 30 fold | anti-CD142 mAb with human IgG2 constant region (antibody)
